Results: paper PMC11402289, “Structural basis for RNA recognition by the C-terminal RRM domain of human RBM45”

T1: RBM45 RRM3 (Homo sapiens, UniProt Q8IUH3 370-476)
T1 sequence: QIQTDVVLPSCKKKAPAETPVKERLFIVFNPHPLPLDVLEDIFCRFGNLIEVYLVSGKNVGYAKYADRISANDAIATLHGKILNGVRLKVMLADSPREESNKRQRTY


Experiments:
[1] = biological target: T1, RBM45 RRM3; assay: fluorescence polarization; FP: 100 nM FAM-RNA/ssDNA, 10 mM Tris-HCl pH 7.5, 200 mM NaCl, 1 mM DTT, 1 mM EDTA, 5% glycerol, 25 °C, 30 min; conditions: protein: recombinant; tags: C-terminal His-tag; label: 5'-FAM
[2] = biological target: T1, RBM45 RRM3; assay: fluorescence polarization; also printed as 33.6; FP: 100 nM FAM-RNA/ssDNA, 10 mM Tris-HCl pH 7.5, 200 mM NaCl, 1 mM DTT, 1 mM EDTA, 5% glycerol, 25 °C, 30 min; conditions: protein: recombinant; tags: C-terminal His-tag; label: 5'-FAM
[3] = biological target: T1, RBM45 RRM3; assay: fluorescence polarization; m6A comparison experiment; FP: 100 nM FAM-RNA/ssDNA, 10 mM Tris-HCl pH 7.5, 200 mM NaCl, 1 mM DTT, 1 mM EDTA, 5% glycerol, 25 °C, 30 min; conditions: protein: recombinant; tags: C-terminal His-tag; label: 5'-FAM
[4] = biological target: T1, RBM45 RRM3; assay: X-ray crystallography; 1.65 A; 0.1 M sodium succinate pH 5.3, 8% PEG 2000; FP: 100 nM FAM-RNA/ssDNA, 10 mM Tris-HCl pH 7.5, 200 mM NaCl, 1 mM DTT, 1 mM EDTA, 5% glycerol, 25 °C, 30 min; conditions: protein: recombinant; tags: C-terminal His-tag

Row | Binder | Kd [1] [µM] | also measured
1 | UGACGG (ssRNA) | 2.13 ± 0.37 | 
2 | AGACGG (ssRNA) | 3.11 ± 0.48 | 
3 | GGACAG (ssRNA) | 28.1 ± 6.62 | 
4 | GGACGC (ssRNA) | 1.08 ± 0.21 | 
5 | CGACGG (ssRNA) | 1.99 ± 0.35 | 
6 | GGACUG (ssRNA) | 15.3 ± 2.1 | 
7 | GGACGU (ssRNA) | 1.21 ± 0.26 | 
8 | GGACGA (ssRNA) | 1.16 ± 0.27 | 
9 | GGUCGG (ssRNA) | 71.6 ± 16.9 | 
10 | GGACGG (ssDNA) [GGACGG ssDNA] | 8.77 ± 0.61 | 
11 | GGCCGG (ssRNA) | 71 ± 16.1 | 
12 | GUACGG (ssRNA) | 9.31 ± 1.93 | 
13 | GGAAGG (ssRNA) | 91.6 ± 17.6 | 
14 | GGAUGG (ssRNA) | 63.6 ± 12.1 | 
15 | UUUUUU (ssRNA) [polyU 6-mer RNA] | 199 ± 114 | 
16 | GGACCG (ssRNA) |  | Kd [2]: 32.6 ± 6.22 µM
17 | GGACGG (ssRNA, m6A at position 3) [GG(m6A)CGG RNA] | 4.62 ± 0.55 | 
18 | GGGCGG (ssRNA) | 59.3 ± 21.2 | 
19 | GAACGG (ssRNA) | 10.2 ± 1.97 | 
20 | GGACGG (ssRNA) [GGACGG RNA] | 2.34 ± 0.38 | Kd [3]: 3.17 ± 0.3 µM
21 | GACGCAG (ssDNA) [GACGCAG ssDNA] |  | binding result [4]: binds
22 | GCACGG (ssRNA) | 8.88 ± 2.32 | 
23 | GGAGGG (ssRNA) | 61.5 ± 45.7 | 
